Assay results from patent US20150197564A1 (Regeneron, published 2015).

Legend:
hANGPTL3(17-170)-His [1] = biological target: T1, hANGPTL3(17-170)-His (human, UniProt Q9Y5C1 17-170); test: SPR Biacore, antigen captured, 37C, pH 7.2, PBSP
T1 construct: also called N-terminal coiled-coil domain of hANGPTL3 with a C-terminal hexahistidine tag; Human ANGPTL3 (17-170)-His
T1 sequence: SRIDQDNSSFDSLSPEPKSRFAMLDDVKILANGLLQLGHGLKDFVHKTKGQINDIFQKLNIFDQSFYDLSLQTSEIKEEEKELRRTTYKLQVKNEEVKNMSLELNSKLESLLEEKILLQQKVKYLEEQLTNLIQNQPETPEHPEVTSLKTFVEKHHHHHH
Method: (§1) All kinetic binding experiments were performed at 25° C. or 37° C. on a BIACORE™ T200 label-free molecular interaction instrument (GE Healthcare) using a CM5 sensor chip. Briefly, an antigen capture surface was generated by covalently coupling either an anti-mouse IgG-specific antibody (anti-mFc; GE Healthcare; catalog #BR-1008-38) or an anti-pentahistidine-specific antibody (Qiagen; catalog #34660) to the surface of a CM5 sensor chip using a standard amine coupling method.

MfANGPTL3(17-170)-mmH [2] = biological target: T2, MfANGPTL3(17-170)-mmH (Macaca fascicularis); test: SPR Biacore, antigen captured, 37C, pH 7.2, PBSP
T2 construct: also called N-terminal coiled-coil domain of ANGPTL3 from Macaca fascicularis with myc-myc-hexahistidine tag; Monkey ANGPTL3 (17-170)-mmH
T2 chain: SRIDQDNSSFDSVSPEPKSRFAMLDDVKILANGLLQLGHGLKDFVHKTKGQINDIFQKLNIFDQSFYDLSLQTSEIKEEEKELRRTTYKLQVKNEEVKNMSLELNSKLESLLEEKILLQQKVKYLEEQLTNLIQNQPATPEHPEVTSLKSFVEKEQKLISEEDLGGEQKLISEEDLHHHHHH
Method: as §1

hANGPTL3(17-460)-His [3] = biological target: T3, hANGPTL3(17-460)-His (human, UniProt Q9Y5C1 17-460); test: SPR Biacore, antigen captured, 37C, pH 5.75, PBSP
T3 construct: Bought protein (R&D Systems); also called full-length mature human ANGPTL3 with a C-terminal decahistidine tag; Human ANGPTL3 (17-460)-His
T3 sequence: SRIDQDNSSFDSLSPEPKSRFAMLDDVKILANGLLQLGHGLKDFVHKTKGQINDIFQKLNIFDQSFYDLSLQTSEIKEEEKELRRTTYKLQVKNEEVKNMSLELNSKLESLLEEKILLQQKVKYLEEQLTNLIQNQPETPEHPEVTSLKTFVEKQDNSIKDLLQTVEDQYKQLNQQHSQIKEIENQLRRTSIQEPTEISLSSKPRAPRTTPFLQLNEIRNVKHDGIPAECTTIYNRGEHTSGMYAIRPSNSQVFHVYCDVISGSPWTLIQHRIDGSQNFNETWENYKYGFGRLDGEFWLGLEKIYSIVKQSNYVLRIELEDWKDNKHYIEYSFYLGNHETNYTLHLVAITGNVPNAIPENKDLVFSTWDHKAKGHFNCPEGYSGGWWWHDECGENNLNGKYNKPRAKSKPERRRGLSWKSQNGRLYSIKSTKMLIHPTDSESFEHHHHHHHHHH
Method: as §1

hANGPTL3(17-170)-His [4] = biological target: T1, hANGPTL3(17-170)-His; test: SPR Biacore, antigen captured, 37C, pH 5.75, PBSP
Method: as §1

MfANGPTL3(17-170)-mmH [5] = biological target: T2, MfANGPTL3(17-170)-mmH; test: SPR Biacore, antigen captured, 37C, pH 5.75, PBSP
Method: as §1

hANGPTL3(17-169)-mFc = biological target: T4, hANGPTL3(17-169)-mFc (human); test: cell-based or functional assay
T4 chain: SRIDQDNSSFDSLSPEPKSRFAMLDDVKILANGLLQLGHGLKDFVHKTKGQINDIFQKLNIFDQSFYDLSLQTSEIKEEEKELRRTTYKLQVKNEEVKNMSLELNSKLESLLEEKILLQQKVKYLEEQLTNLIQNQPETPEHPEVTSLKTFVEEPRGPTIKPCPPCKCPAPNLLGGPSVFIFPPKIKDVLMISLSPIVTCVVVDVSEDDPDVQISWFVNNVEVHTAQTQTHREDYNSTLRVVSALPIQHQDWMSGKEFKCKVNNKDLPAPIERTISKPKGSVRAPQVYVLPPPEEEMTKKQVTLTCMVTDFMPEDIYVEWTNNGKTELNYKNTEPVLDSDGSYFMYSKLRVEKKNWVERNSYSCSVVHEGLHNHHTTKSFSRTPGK

hANGPTL3(17-460)-His [6] = biological target: T3, hANGPTL3(17-460)-His; test: cell-based or functional assay
mANGPTL3(17-455)-His = biological target: T5, mANGPTL3(17-455)-His (Mus musculus, UniProt Q9R182 17-455); test: cell-based or functional assay
T5 sequence: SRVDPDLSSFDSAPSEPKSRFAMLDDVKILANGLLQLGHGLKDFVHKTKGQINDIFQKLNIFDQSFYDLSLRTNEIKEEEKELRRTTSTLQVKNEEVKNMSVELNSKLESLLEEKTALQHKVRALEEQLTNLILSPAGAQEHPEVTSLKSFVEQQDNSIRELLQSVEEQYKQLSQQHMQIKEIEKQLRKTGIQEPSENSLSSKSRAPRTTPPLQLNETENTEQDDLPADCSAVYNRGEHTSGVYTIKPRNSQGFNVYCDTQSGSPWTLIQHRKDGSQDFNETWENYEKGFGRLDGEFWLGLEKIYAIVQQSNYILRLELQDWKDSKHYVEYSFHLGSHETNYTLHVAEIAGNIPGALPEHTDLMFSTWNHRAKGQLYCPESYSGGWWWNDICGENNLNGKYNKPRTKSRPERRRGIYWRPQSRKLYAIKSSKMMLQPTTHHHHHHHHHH

hANGPTL3(17-170)-His [7] = biological target: T1, hANGPTL3(17-170)-His; test: cell-based or functional assay
MfANGPTL3(17-170)-mmH [8] = biological target: T2, MfANGPTL3(17-170)-mmH; test: cell-based or functional assay

B1: H4H1276S (antibody, IgG4, V domains shown)
VH: EVQLVESGGGVIQPGGSLRLSCAASGFTFDDYAMNWVRQGPGKGLEWVSAISGDGGSTYYADSVKGRFTISRDNSKNSLYLQMNSLRAEDTAFFYCAKDLRNTIFGVVIPDAFDIWGQGTMVTVSS
VL: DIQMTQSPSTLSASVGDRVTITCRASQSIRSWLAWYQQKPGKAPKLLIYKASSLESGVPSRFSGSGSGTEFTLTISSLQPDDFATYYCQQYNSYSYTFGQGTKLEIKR
Kd (hANGPTL3(17-170)-His [1]): 1.74 nM
koff (hANGPTL3(17-170)-His [1]): 0.00273 s⁻¹
kon (hANGPTL3(17-170)-His [1]): 1.57e+06 M⁻¹ s⁻¹
t1/2 (hANGPTL3(17-170)-His [1]): 4.2 min
Kd (MfANGPTL3(17-170)-mmH [2]): 0.7 nM
koff (MfANGPTL3(17-170)-mmH [2]): 0.00136 s⁻¹
kon (MfANGPTL3(17-170)-mmH [2]): 1.94e+06 M⁻¹ s⁻¹
t1/2 (MfANGPTL3(17-170)-mmH [2]): 8.5 min
Kd (hANGPTL3(17-460)-His [3]): 227 nM
koff (hANGPTL3(17-460)-His [3]): 0.0107 s⁻¹
kon (hANGPTL3(17-460)-His [3]): 47100 M⁻¹ s⁻¹
t1/2 (hANGPTL3(17-460)-His [3]): 1.1 min
Kd (hANGPTL3(17-170)-His [4]): 26.7 nM
koff (hANGPTL3(17-170)-His [4]): 0.0324 s⁻¹
kon (hANGPTL3(17-170)-His [4]): 1.22e+06 M⁻¹ s⁻¹
t1/2 (hANGPTL3(17-170)-His [4]): 0.4 min
Kd (MfANGPTL3(17-170)-mmH [5]): 18.8 nM
koff (MfANGPTL3(17-170)-mmH [5]): 0.00521 s⁻¹
kon (MfANGPTL3(17-170)-mmH [5]): 278000 M⁻¹ s⁻¹
t1/2 (MfANGPTL3(17-170)-mmH [5]): 2.2 min
IC50 (nM), LPL bioassay, 80 nM constant ANGPTL3 (hANGPTL3(17-169)-mFc): 21 nM
IC50 (nM), LPL bioassay, 80 nM constant ANGPTL3 (hANGPTL3(17-460)-His [6]): 9.6 nM
IC50 (nM), LPL bioassay, 80 nM constant ANGPTL3 (mANGPTL3(17-455)-His): 14 nM
IC50 (nM), LPL bioassay, 100 nM constant ANGPTL3 (hANGPTL3(17-170)-His [7]): 2.9 nM
IC50 (nM), LPL bioassay, 500 nM constant ANGPTL3 (MfANGPTL3(17-170)-mmH [8]): 10 nM
